We go through one molecule from paper PMC3501478, “Structure of the Human Discs Large 1 PDZ2– Adenomatous Polyposis Coli Cytoskeletal Polarity Complex: Insight into Peptide Engagement and PDZ Clustering” (PLoS ONE, 2012).

No end group written: not given here. TMR = tetramethyl rhodamine

For this experiment, the target named is T1, human Discs Large 1 (hDlg1) PDZ2 domain, residues 310-407 (human, UniProt Q12959 310-407).
T1 construct: N-terminal gly-ser cloning artifact left on the PDZ2 domain after thrombin cleavage of GST; human Discs Large 1 (Dlg1), PDZ2 domain, residues 310-407; synthetic gene with E. coli codon usage in pGEX-2T; In the final model chain A holds residues 310-406, with R310 modelled as alanine; also called hDlg PDZ2; source: E. coli BL21 DE3 pLysS, purified (Glutathione Sepharose, thrombin cleavage, SP …)
In words: crystal structure; 1.4 mM Dlg1 PDZ2 incubated with 1.7 mM APC C-terminal peptide (1:1.2) in 100 mM NaCl, 25 mM Tris pH 7.0, 0.1% beta-mercaptoethanol; hanging drop, 200 mM sodium acetate, 100 mM sodium cacodylate pH 6.25, 28% PEG 8000, 20°C; space group P212121, 2.0 Å. Particulars: both partners purified.

T1 sequence (Q12959 other isoform, or with tags, fused parts or gaps): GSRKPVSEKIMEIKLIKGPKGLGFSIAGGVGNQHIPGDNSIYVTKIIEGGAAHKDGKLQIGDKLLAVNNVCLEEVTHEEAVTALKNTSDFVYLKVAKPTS

B1: APC C-terminal peptide RHSGSYLVTSV (residues 2833-2843) with N-terminal tetramethyl rhodamine (peptide)
peptide: {TMR}-RHSGSYLVTSV
notes: human Adenomatous Polyposis Coli (APC), C-terminal 11 residues 2833-2843 of the 2843 amino acid protein; Only residues 2838-2843 are seen in the electron density; the TMR fluorophore and the N-terminal five residues are not; also called APC peptide; TMR-APC peptide; source: synthetic peptide (Yale Keck Biotechnology Resource Laboratory), purified by HPLC
With B1, the binding result was “binds”.
